Among the data in paper PMC3810412 are Ki values, retold here.

For orientation: Ki means a dissociation constant, usually derived from enzyme kinetics or from competition with a known ligand. Read a high Ki as lower affinity.

The assay deals with T1, delta opioid receptor (Homo sapiens), P41143.
T1 chain: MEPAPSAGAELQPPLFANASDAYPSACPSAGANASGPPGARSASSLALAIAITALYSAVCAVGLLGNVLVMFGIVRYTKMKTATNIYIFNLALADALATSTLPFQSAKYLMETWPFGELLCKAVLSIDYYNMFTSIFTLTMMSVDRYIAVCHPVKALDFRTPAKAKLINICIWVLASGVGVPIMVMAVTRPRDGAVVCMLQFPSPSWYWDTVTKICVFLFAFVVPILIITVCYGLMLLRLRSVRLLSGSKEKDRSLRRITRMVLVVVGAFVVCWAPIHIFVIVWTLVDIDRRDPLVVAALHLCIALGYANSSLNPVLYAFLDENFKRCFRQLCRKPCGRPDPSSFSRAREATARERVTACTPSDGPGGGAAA
Briefly: radioligand competition. Particulars: modification not given.

B1: ligand 5 (peptide)
chain: YAGFMPLW
In the case of B1, the Ki was 13 nM.

B2: ligand 7 (peptide)
chain: YAGFMW
The molecule B2 showed a Ki of 2.9 nM.

B3: ligand 2 (peptide)
chain: YAGFMALW
Regarding B3, the Ki is 25 nM.

B4: ligand 8 (peptide)
chain: YAGFLW
B4: the Ki amounted to 0.6 nM. Compared with the last molecule, the Ki is about 42-fold lower.
